Laboratory results as given in publication PMC4005638, “Interactions between the non-seed region of siRNA and RNA-binding RLC/RISC proteins, Ago and TRBP, in mammalian cells”.

Experiments:
[1] = molecular target: T1, GST-PAZ (human AGO1 PAZ domain) (Homo sapiens, UniProt Q9UL18 222-376); assay: EMSA; TRBP EMSA: 20 mM Tris pH 7.5, 150 mM NaCl, 2 mM EDTA, 1 mM 2-ME, 1 mM DTT, 50 ng/ml salmon sperm DNA, RNasin, 0.5 nM siRNA, 30 min; PAZ EMSA: 1 pmol/ul PAZ, 5 fmol/ul siRNA, 20 mM Tris-HCl pH 7.5, 100 mM NaCl, 2 mM EDTA, 1 mM DTT, 5% glycerol, 50 ng/ul poly(dA-dT), RNasin, 30 min, room temperature; settings: protein: recombinant; tags: N-terminal GST, C-terminal 6xHis; label: 32P guide strand; 19 bp, 2-nt 3' overhangs
[2] = molecular target: T2, TRBP (Homo sapiens, UniProt Q15633 1-366); assay: EMSA; virtually no binding; TRBP EMSA: 20 mM Tris pH 7.5, 150 mM NaCl, 2 mM EDTA, 1 mM 2-ME, 1 mM DTT, 50 ng/ml salmon sperm DNA, RNasin, 0.5 nM siRNA, 30 min; PAZ EMSA: 1 pmol/ul PAZ, 5 fmol/ul siRNA, 20 mM Tris-HCl pH 7.5, 100 mM NaCl, 2 mM EDTA, 1 mM DTT, 5% glycerol, 50 ng/ul poly(dA-dT), RNasin, 30 min, room temperature; settings: protein: recombinant; tags: N-terminal 6xHis; label: 32P guide strand; 19 bp, 2-nt 3' overhangs
T2 sequence: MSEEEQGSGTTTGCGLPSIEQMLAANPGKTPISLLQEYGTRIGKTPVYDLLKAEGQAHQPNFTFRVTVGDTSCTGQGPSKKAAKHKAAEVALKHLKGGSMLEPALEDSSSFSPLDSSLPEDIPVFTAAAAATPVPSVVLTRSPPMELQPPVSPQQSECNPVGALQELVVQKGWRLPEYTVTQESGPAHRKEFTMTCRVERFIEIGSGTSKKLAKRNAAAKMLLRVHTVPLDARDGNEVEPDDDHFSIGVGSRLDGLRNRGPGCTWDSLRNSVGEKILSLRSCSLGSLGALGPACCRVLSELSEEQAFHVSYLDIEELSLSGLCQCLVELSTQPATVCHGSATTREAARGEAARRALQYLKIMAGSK

[3] = molecular target: T1, GST-PAZ (human AGO1 PAZ domain); assay: EMSA; strong; TRBP EMSA: 20 mM Tris pH 7.5, 150 mM NaCl, 2 mM EDTA, 1 mM 2-ME, 1 mM DTT, 50 ng/ml salmon sperm DNA, RNasin, 0.5 nM siRNA, 30 min; PAZ EMSA: 1 pmol/ul PAZ, 5 fmol/ul siRNA, 20 mM Tris-HCl pH 7.5, 100 mM NaCl, 2 mM EDTA, 1 mM DTT, 5% glycerol, 50 ng/ul poly(dA-dT), RNasin, 30 min, room temperature; settings: protein: recombinant; tags: N-terminal GST, C-terminal 6xHis; label: 32P guide strand; 19 bp, 2-nt 3' overhangs

T1 sequence (Q9UL18 222-376): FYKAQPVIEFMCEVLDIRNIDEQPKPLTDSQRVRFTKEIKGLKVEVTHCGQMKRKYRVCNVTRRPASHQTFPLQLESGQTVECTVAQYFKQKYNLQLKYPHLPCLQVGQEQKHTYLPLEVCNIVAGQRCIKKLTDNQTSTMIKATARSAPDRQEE

B1: siLuc-36 siDNA (dsDNA)
DNA 1: TCTTCCAGCGGATAGAATGGC
DNA 2: CATTCTATCCGCTGGAAGATG
modifications: all ribonucleotides replaced by DNA
What does the source list for B1?
binding result [1]: no binding; binding result [2]: no binding

B2: siLuc-36 TCA-RNA (mixed)
DNA 1: TCTTCCAGCGGATAGAAUGGC
DNA 2: CAUUCTAUCCGCTGGAAGATG
modifications: DNA: seed duplex and subdomain B (guide 1-8, 13-14; passenger 6-7, 12-21)
Does B2 bind [3]?
Result: binds

B3: siLuc-36 nonmodified (dsRNA)
RNA 1: UCUUCCAGCGGAUAGAAUGGC
RNA 2: CAUUCUAUCCGCUGGAAGAUG
Does B3 bind [1]?
Result: binds

B4: siLuc2-153 siDNA (dsDNA)
DNA 1: TCGAAGTATTCCGCGTACGTG
DNA 2: CGTACGCGGAATACTTCGATT
modifications: all ribonucleotides replaced by DNA
Does B4 bind [2]?
Result: no binding
